In publication PMC314469, “Protein Interaction Networks by Proteome Peptide Scanning” (PLoS Biology, 2004) one finds normalised SPOT signal, Boehringer light units (BLU); mean over the file's lines of this peptide data, which are given here for 19 molecules.

What all share (test): SPOT array
For assay [1], the target named is T1, Yhr016c SH3 (YSC84_YEAST), P32793.
T1 chain: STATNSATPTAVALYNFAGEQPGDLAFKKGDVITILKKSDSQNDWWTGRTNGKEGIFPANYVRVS

Assay [2] concerns the target T2, Rvs167 SH3 (RV167_YEAST), P39743.
T2 chain: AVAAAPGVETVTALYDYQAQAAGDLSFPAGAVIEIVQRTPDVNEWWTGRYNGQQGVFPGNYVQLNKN

Assay [3] concerns the target T3, Yfr024 SH3 (LSB3_YEAST), P43603.
T3 chain: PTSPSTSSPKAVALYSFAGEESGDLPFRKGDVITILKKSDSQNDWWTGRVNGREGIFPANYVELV

In assay [4] the target is T4, Boi2 SH3 (BOI2_YEAST), P39969.
T4 chain: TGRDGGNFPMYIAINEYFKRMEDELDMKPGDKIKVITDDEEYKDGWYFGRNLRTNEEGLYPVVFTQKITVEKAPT

The target in assay [5] is T5, Boi1 SH3 (BOI1_YEAST), P38041.
T5 chain: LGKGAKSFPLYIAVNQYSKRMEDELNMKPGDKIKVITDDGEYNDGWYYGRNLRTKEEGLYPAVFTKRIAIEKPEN

Turning to DSGPQRPKRTRAKG [YDL106C 73-86], the normalised SPOT signal, Boehringer light units (BLU); mean over the file's lines of this peptide is 4170 in assay [1]; 218 in assay [2]; 38900 in assay [3]; 91.1 in assay [4]; 460 in assay [5].
On to DRPPDVPRKIIVGR [YBL067C 301-314], for which the normalised SPOT signal, Boehringer light units (BLU); mean over the file's lines of this peptide in assay [1] was 358; in assay [2], 92.5; in assay [3], 2970; in assay [4], 62.3; in assay [5], 96.5.
In the same order, the values of DMVPKHPTKRYVPK [YOR039W 203-216] are 460, 94.1, 1770, 114 and 160.
For DSIPSRPQRRKSVL [YMR221C 258-271] the same measures were 4310, 651, 27600, 334 and 1520.
For DLQPLEPKKAAAST [YBL007C 805-818] the same measures were 0, 30.3, 37.7, 104 and 121.
As to DVPPQLPTRTKSGE [YOR042W 337-350], the normalised SPOT signal, Boehringer light units (BLU); mean over the file's lines of this peptide in assay [1] amounted to 73200; in assay [2], 23600; in assay [3] it was 27900; in assay [4], 61.9; in assay [5], 76.3.
Take DSIPVDPEKVVAIV [YBL015W 216-229]: the normalised SPOT signal, Boehringer light units (BLU); mean over the file's lines of this peptide was 0 in assay [1]; 37.9 in assay [2]; 0 in assay [3]; 22.2 in assay [4]; 50 in assay [5].
DVIPKKPLKSAADK [YOL055C 314-327]: the normalised SPOT signal, Boehringer light units (BLU); mean over the file's lines of this peptide stood at 37 in assay [1]; 9.7 in assay [2]; 359 in assay [3]; 35.9 in assay [4]; 142 in assay [5].
As for DSLPKLPFRSWGQP [YBR132C 490-503], the normalised SPOT signal, Boehringer light units (BLU); mean over the file's lines of this peptide is 60200 in assay [1]; 16100 in assay [2]; 39100 in assay [3]; 25.7 in assay [4]; 179 in assay [5].
Consider DSDPNTPKKLSSPR [YNL238W 661-674], for which the normalised SPOT signal, Boehringer light units (BLU); mean over the file's lines of this peptide in assay [1] amounted to 156; in assay [2], 0; in assay [3], 28.1; in assay [4], 22.9; in assay [5], 108.
In the same order, the values of DVLPAGPVRSLEGV [YLR460C 130-143] are 0, 32.7, 4, 44 and 28.2.
As for DQAPSLPPKPNTQL [YCL008C 158-171], the normalised SPOT signal, Boehringer light units (BLU); mean over the file's lines of this peptide in assay [1] was found to be 4710; in assay [2], 32.3; in assay [3] it was 17600; in assay [4], 72.2; in assay [5], 54.8.
As to DSIPLEPKKAKHLM [YHR118C 82-95], the normalised SPOT signal, Boehringer light units (BLU); mean over the file's lines of this peptide in assay [1] was 206; in assay [2] it was 33.7; in assay [3] it was 141; in assay [4] it was 26.5; in assay [5] it was 389.
As to DSPPQSPRRSSNSS [YKL185W 464-477], the normalised SPOT signal, Boehringer light units (BLU); mean over the file's lines of this peptide was 3410 in assay [1]; 41.3 in assay [2]; 15900 in assay [3]; 15.6 in assay [4]; 309 in assay [5].
For DSLPFAPLRKVYEL [YBR056W 139-152], the normalised SPOT signal, Boehringer light units (BLU); mean over the file's lines of this peptide is 200 in assay [1]; 156 in assay [2]; 322 in assay [3]; 34.7 in assay [4]; 61.9 in assay [5].
For DQKPLVPIRIYGAI [YPR023C 316-329] the same measures were 1280, 114, 5150, 88.8 and 181.
In the same order, the values of DPHPEDPRRIYRIY [YNL021W 81-94] are 75.3, 14.1, 161, 40.8 and 660.
For DPLPYSPLKLYDQK [YCR065W 382-395] the same measures were 216, 62.6, 117, 134 and 58.9.
DVLPAGPVRSLEGA [YCR102C 122-135]: the normalised SPOT signal, Boehringer light units (BLU); mean over the file's lines of this peptide in assay [1] turned out to be 221; in assay [2], 0; in assay [3], 137; in assay [4], 45.9; in assay [5], 24.6.
